# Measured values from patent publication US20240010720A1 (IOMX THERAPEUTICS, published 2024).
# B1: A-002 (scFv format) (scFv, V domains shown)
# VH: EVQLVESGGGLIQPGGSLRLSCAASGFTVSSNYMSWVRQAPGKGLEWVSVIYSGGSTYYADSVKGRFTISRDNSKNTLYLQMNSLRAEDTAVYYCARGNPYYYGDLQVNFDYWGQGTLVTVSS
# VL: QAVVTQEPSLTVSPGGTVTPTCGSSTGAVTSGNLPNWFQQKPGQAPRALIYSTSNKHSWTPARISGSLLGGKAALTLSGVQPEDEAEYYCLLYYGGAWVFGGGTKLTVL
# notes: scFv
# B2: A-012 (scFv format) (scFv, V domains shown)
# VH: EVQLLESGGGLIQPGGSLRLSCAVSGFTVSSNYMSWVRQAPGKGLEWVSVIYSGGSTYYADSVKGRFTISRDNSKNTLYLQMNSLRAEDTAVYYCARGNPYYYGDLQVNFDYWGQGTLVTVSS
# VL: QAVVTQEPSLTVSPGGTVTLTCASSTGAVTSGYYPNWFQQKPGQAPRALIYSTSNKHSWTPARFSGSLLGGKAALTLSGVQPEDEAEYYCLLYYGGAWVFGGGTKLTVL
# notes: scFv
# B3: A-006 (scFv format) (scFv, V domains shown)
# VH: EVQLVESGGGLIQPGGSLRLSCAASGFTVSSNYMSWVRQAPGKGLEWVSVIYSGGSTYYADSVKGRFTISRDNSKNTLYLQMNSLRAEDTAVYYCARGNPYYYGDLQVNFDYWGQGTLVTVSS
# VL: QAVVTQEPSLTVSPGGTVTLTCASSTGAVTSGYYPNWFQQKPGQAPRPLIYSTSNKHSWTPARFSGSLLGGKAALTLSGVQPDDEAEYYCLLYYGGDWVFGGGTKLTVL
# notes: scFv
# B4: A-013 (scFv format) (scFv, V domains shown)
# VH: EVQLVESGGGLIQPGGSLRLSCAASGFTVSSNYMSWVRQAPGKGLEWVSVIYSGGSTYYADSVKGRFTISRDNSKNTLYLQMNSLRAEDTAVYYCARGNPYYYGDLQVNFDYWGQGTLVTVSS
# VL: QAVVTQEPSLTVSPGGTVTLTCASSTGAVTSAYYPNWFQQKPGQAPRALIYSTSNKHSWTPARFSGSLLGGKAALTLSGVQPEDEADYYCLLYYGGAWVFGGGTKLTVL
# notes: scFv
# B5: A-005 (scFv format) (scFv, V domains shown)
# VH: EVQLVESGGGLIQPGGSLRLSCAASGFTVSSNYMSWVRQAPGKGLEWVSVIYSGGSTYYADSVKGRFTISRDNSKNTLYLQMNSLRAEDTAVYYCARGNPYYYGDLQVNFDYWGQGTLVTVSS
# VL: QAVVTQEPSLTVSPGETVTLTCASSTGAVTSGYYPNWFQQRPGQAPRALIYSTSNKDSWTPARFSGSLLGGKAALTLSGVQPEDEAEYYCLLYYGGAWVFGGGTKLTVL
# notes: scFv
# B6: A-008 (scFv format) (scFv, V domains shown)
# VH: QLQLQESGPGLVKPSETLSLTCTVSGGSISSSGYYWGWIRQPPGKGLEWIGSIYYSGSTYYNPSLKSRVTISVDTSKNQFSLKLSSVTAADTAVYYCARHRVRFGEFDAFDIWGQGTMVTVSS
# VL: QAVLTQPPSVSGAPGERVTLSCTGTSSNVGADFDVHWYQQFPGTAPRLLIFGSDNRPSGVPDRFSGSKSGTSASLAITGLQVEDEADYYCQAYDVRLSGWVFGGGTKLTVL
# notes: scFv
# B7: A-007 (scFv format) (scFv, V domains shown)
# VH: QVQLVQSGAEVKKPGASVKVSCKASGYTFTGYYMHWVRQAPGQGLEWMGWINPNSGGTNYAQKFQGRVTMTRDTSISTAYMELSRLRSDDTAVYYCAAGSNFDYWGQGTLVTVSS
# VL: QSALTQPASVSGSPGQSITIACTGSSSDIGSFSYVSWYQQRPGKAPTLIIYGVNNRPLGVSRRFSGSKSGNTASLSISGLQAEDEADYYCSSYTRRSTVIFGGGTKLTVL
# notes: scFv
# B8: A-001 (scFv format) (scFv, V domains shown)
# VH: EVQLVESGGGLVKPGGSLRLSCAASGFTFSSYSMNWVRQAPGKGLEWVSSISSSSSYIYYADSVKGRFTISRDNAKNSLYLQMNSLRAEDTAVYYCVRSIIVQALGITSVFDIWGQGTMVTVSS
# VL: AIRLTQSPSSLSASVGDRVTISCRASQIISNHLNWYQQKPGKAPKLLIYAASRLQTGVPSRFSGSGSETDYTLTISSLQPEDFATYYCQQSYSNPRTFGHGTKVEIK
# notes: scFv
# Target: T1, Streptavidin (UniProt P22629 37-163, limits assumed)
# T1 construct: also called negative antigen; irrelevant antigen
# T1 sequence (P22629 37-163 limits assumed): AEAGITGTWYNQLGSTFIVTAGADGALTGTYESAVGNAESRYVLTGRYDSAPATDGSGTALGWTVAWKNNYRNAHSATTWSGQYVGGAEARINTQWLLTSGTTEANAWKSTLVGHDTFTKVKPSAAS
# Assay: ELISA, scFv
row,Binder,binding result
1,B1,no binding (tested: <0.025 or <0.05 RFU)
2,B2,no binding (tested: <0.025 or <0.05 RFU)
3,B3,no binding (tested: <0.025 or <0.05 RFU)
4,B4,no binding (tested: <0.025 or <0.05 RFU)
5,B5,no binding (tested: <0.025 or <0.05 RFU)
6,B6,no binding (tested: <0.025 or <0.05 RFU)
7,B7,no binding (tested: <0.025 or <0.05 RFU)
8,B8,no binding (tested: <0.025 or <0.05 RFU)
